Test results reported in PMC8751089, “Photobiocatalytic Oxyfunctionalization with High Reaction Rate using a Baeyer–Villiger Monooxygenase from Burkholderia xenovorans in Metabolically Engineered Cyanobacteria” (ACS Catalysis, 2021).

How the values were obtained:
BVMOXeno = tested on: T1, BVMOXeno; assay: steady-state kinetics, NADPH consumption; type: biochemical, Paraburkholderia xenovorans; conditions: co-substrates NADPH and O2; 50 mM Tris-HCl, pH 8, 25 °C
T1 construct: gene BVMO_Xeno; purified enzyme, recombinant (E. coli); tag details only in supplement
Excerpt: steady-state kinetics, NADPH consumption on BVMOXeno

O=C1CCCCC1 = assay: purified protein; conditions: co-substrates NADPH and O2, 50 mM Tris-HCl, pH 8, 25 °C

`O=C1CCCCC1` [1a, cyclohexanone] showed a Km (BVMOXeno) of 22.7 ± 5 µM.
Work on CHMOAcineto (Acinetobacter johnsonii) yielded a Km (O=C1CCCCC1) of 266.6 ± 25.5 µM, a kcat (O=C1CCCCC1) of 4.54 ± 0.095 s⁻¹ and a kcat/Km (O=C1CCCCC1) of 17000 ± 1670 M⁻¹ s⁻¹.
